Source: patent publication US20160361434

Tests used:
[1] = molecular target: T1, HH12N11
T1 chain: HDLMWPDVYSNH

[2] = molecular target: T2, HH12Q11
T2 chain: HDLMWPDVYSQH

[3] = molecular target: T3, DH6N5
T3 chain: DVYSNH

[4] = molecular target: T4, CS9Q4
T4 chain: CYEQHKLPS

[5] = molecular target: T5, GS12Q7
T5 chain: GGSPLAQSHGGS

[6] = molecular target: T6, FE5Q4
T6 chain: FWIQE

[7] = molecular target: BSA-HH12Q11 conjugate, P02769
[8] = molecular target: T7, TGpan
T7 chain: QG

[9] = molecular target: Bovine serum albumin, P02769
Sequence of Bovine serum albumin, P02769 (P02769 25-607): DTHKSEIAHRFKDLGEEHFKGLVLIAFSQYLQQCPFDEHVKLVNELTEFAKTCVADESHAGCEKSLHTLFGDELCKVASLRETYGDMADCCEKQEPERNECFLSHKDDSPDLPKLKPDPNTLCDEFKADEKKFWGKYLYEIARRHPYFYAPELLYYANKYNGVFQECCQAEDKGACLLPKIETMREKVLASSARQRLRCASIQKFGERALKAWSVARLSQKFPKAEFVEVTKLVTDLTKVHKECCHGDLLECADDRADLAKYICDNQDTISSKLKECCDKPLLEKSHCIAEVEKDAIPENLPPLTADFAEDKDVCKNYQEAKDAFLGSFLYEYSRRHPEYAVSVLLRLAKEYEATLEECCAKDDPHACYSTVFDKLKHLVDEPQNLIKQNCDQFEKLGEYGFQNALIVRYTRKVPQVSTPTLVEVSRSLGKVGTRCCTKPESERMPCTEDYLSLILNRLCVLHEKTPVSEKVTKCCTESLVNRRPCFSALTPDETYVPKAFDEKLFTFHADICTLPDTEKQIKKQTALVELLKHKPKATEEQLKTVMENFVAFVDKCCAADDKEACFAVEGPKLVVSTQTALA

[10] = molecular target: T8, SY10Q8
T8 chain: SPLKHQEY

[11] = molecular target: T9, CW8Q3
T9 chain: CDQMMLPW

[12] = molecular target: T10, DH6Q5
T10 chain: DVYSQH

[13] = molecular target: T11, CF13Q4
T11 chain: CYEQHKLPSSWPF

[14] = molecular target: T12, FY12Q10
T12 chain: FPWSSPLKHQEY

[15] = molecular target: T13, HG14Q11
T13 chain: HDLMWPDVYSQHGG

[16] = molecular target: T14, WG10Q7
T14 chain: WPDVYSQHGG

[17] = molecular target: T15, YV10
T15 chain: YLADTNSLAV

Sequence of BSA-HH12Q11 conjugate, P02769 (P02769 25-607): as above

B1: Recombinant microbial transglutaminase (mTG) (protein)
chain: DSDDRVTPPAEPLDRMPDPYRPSYGRAETVVNNYIRKWQQVYSHRDGRKQQMTEEQREWLSYGCVGVTWVNSGQYPTNRLAFASFDEDRFKNELKNGRPRSGETRAEFEGRVAKESFDEEKGFQRAREVASVMNRALENAHDESAYLDNLKKELANGNDALRNEDARSPFYSALRNTPSFKERNGGNHDPSRMKAVIYSKHFWSGQDRSSSADKRKYGDPDAFRPAPGTGLVDMSRDRNIPRSPTSPGEGFVNFDYGWFGAQTEADADKTVWTHGNHYHAPNGSLGAMHVYESKFRNWSEGYSDFDRGAYVITFIPKSWNTAPDKVKQGWP
[1]
  mTG-mediated incorporation of biotin-X-cadaverine into plate-coupled peptide (A450): no reactivity of the mTG was observed
[2]
  mTG-mediated incorporation of biotin-X-cadaverine into plate-coupled peptide (A450): found to be good substrate for mTG with better reactivity of the peptides FE5Q4 and HH12Q11
[3]
  mTG-mediated incorporation of biotin-X-cadaverine into plate-coupled peptide (A450): The other peptides listed in table 1 didn't show any reactivity with mTG
[4]
  mTG-mediated incorporation of biotin-X-cadaverine into plate-coupled peptide (A450): The other peptides listed in table 1 didn't show any reactivity with mTG
[5]
  mTG-mediated incorporation of biotin-X-cadaverine into plate-coupled peptide (A450): showed low reactivity to mTG in comparison with the other peptides
[6]
  mTG-mediated incorporation of biotin-X-cadaverine into plate-coupled peptide (A450): found to be good substrate for mTG with better reactivity of the peptides FE5Q4 and HH12Q11
[7]
  mTG incorporation of biot-cad into coated conjugate (A450): a good incorporation of biot-cad was obtained with BSA-HH12Q11 conjugate
[8]
  mTG-mediated incorporation of biotin-X-cadaverine into plate-coupled peptide (A450): showed low reactivity to mTG in comparison with the other peptides
[9]
  mTG incorporation of biot-cad into coated protein (A450): no reactivity with free BSA
[10]
  mTG-mediated incorporation of biotin-X-cadaverine into plate-coupled peptide (A450): The other peptides listed in table 1 didn't show any reactivity with mTG
[11]
  mTG-mediated incorporation of biotin-X-cadaverine into plate-coupled peptide (A450): The other peptides listed in table 1 didn't show any reactivity with mTG
[12]
  mTG-mediated incorporation of biotin-X-cadaverine into plate-coupled peptide (A450): Peptides FE5Q4, HH12Q11 and DH6Q7 were found to be good substrate for mTG
[13]
  mTG-mediated incorporation of biotin-X-cadaverine into plate-coupled peptide (A450): The other peptides listed in table 1 didn't show any reactivity with mTG
[14]
  mTG-mediated incorporation of biotin-X-cadaverine into plate-coupled peptide (A450): The other peptides listed in table 1 didn't show any reactivity with mTG

B2: Recombinant human transglutaminase 2 (hTG2) (protein)
chain: MAEELVLERCDLELETNGRDHHTADLCREKLVVRRGQPFWLTLHFEGRNYEASVDSLTFSVVTGPAPSQEAGTKARFPLRDAVEEGDWTATVVDQQDCTLSLQLTTPANAPIGLYRLSLEASTGYQGSSFVLGHFILLFNAWCPADAVYLDSEEERQEYVLTQQGFIYQGSAKFIKNIPWNFGQFEDGILDICLILLDVNPKFLKNAGRDCSRRSSPVYVGRVVSGMVNCNDDQGVLLGRWDNNYGDGVSPMSWIGSVDILRRWKNHGCQRVKYGQCWVFAAVACTVLRCLGIPTRVVTNYNSAHDQNSNLLIEYFRNEFGEIQGDKSEMIWNFHCWVESWMTRPDLQPGYEGWQALDPTPQEKSEGTYCCGPVPVRAIKEGDLSTKYDAPFVFAEVNADVVDWIQQDDGSVHKSINRSLIVGLKISTKSVGRDEREDITHTYKYPEGSSEEREAFTRANHLNKLAEKEETGMAMRIRVGQSMNMGSDFDVFAHITNNTAEEYVCRLLLCARTVSYNGILGPECGTKYLLNLNLEPFSEKSVPLCILYEKYRDCLTESNLIKVRALLVEPVINSYLLAERDLYLENPEIKIRILGEPKQKRKLVAEVSLQNPLPVALEGCTFTVEGAGLTEEQKTVEIPDPVEAGEEVKVRMDLLPLHMGLHKLVVNFESDKLKAVKGFRNVIIGPA
[1]
  TG2-mediated incorporation of biotin-cadaverine into plate-coupled peptide (A450): none of the other peptides react with the enzyme and cannot be used as substrate for TG2
[15]
  TG2-mediated incorporation of biotin-cadaverine into plate-coupled peptide (A450): none of the other peptides react with the enzyme and cannot be used as substrate for TG2
[2]
  TG2-mediated incorporation of biotin-cadaverine into plate-coupled peptide (A450): HH12Q11 show less reactivity with TG2 than mTG
[3]
  TG2-mediated incorporation of biotin-cadaverine into plate-coupled peptide (A450): none of the other peptides react with the enzyme and cannot be used as substrate for TG2
[4]
  TG2-mediated incorporation of biotin-cadaverine into plate-coupled peptide (A450): none of the other peptides react with the enzyme and cannot be used as substrate for TG2
[5]
  TG2-mediated incorporation of biotin-cadaverine into plate-coupled peptide (A450): none of the other peptides react with the enzyme and cannot be used as substrate for TG2
[6]
  TG2-mediated incorporation of biotin-cadaverine into plate-coupled peptide (A450): none of the other peptides react with the enzyme and cannot be used as substrate for TG2
[16]
  TG2-mediated incorporation of biotin-cadaverine into plate-coupled peptide (A450): none of the other peptides react with the enzyme and cannot be used as substrate for TG2
[17]
  TG2-mediated incorporation of biotin-cadaverine into plate-coupled peptide (A450): none of the other peptides react with the enzyme and cannot be used as substrate for TG2
[8]
  TG2-mediated incorporation of biotin-cadaverine into plate-coupled peptide (A450): TGpan is good substrate for TG2 confirming its specificity to this enzyme
[10]
  TG2-mediated incorporation of biotin-cadaverine into plate-coupled peptide (A450): none of the other peptides react with the enzyme and cannot be used as substrate for TG2
[11]
  TG2-mediated incorporation of biotin-cadaverine into plate-coupled peptide (A450): none of the other peptides react with the enzyme and cannot be used as substrate for TG2
[12]
  TG2-mediated incorporation of biotin-cadaverine into plate-coupled peptide (A450): none of the other peptides react with the enzyme and cannot be used as substrate for TG2
[13]
  TG2-mediated incorporation of biotin-cadaverine into plate-coupled peptide (A450): none of the other peptides react with the enzyme and cannot be used as substrate for TG2
[14]
  TG2-mediated incorporation of biotin-cadaverine into plate-coupled peptide (A450): none of the other peptides react with the enzyme and cannot be used as substrate for TG2
